Here are results for three substances from publication PMC3002993.

Holding throughout (experiment): co-immunoprecipitation (HA-specific IP), Western blot densitometry
On the technique in general: In western blotting, separated proteins are transferred to a membrane and probed.

Assay [1] has as its target nonstructural protein 3 (NS3) of JFH1 (UniProt Q99IB8). The following applies: Huh7.5 cells transfected with full-length genome, harvested 72 h later; two independent experiments; read off a plot.
Assay [2] concerns the target nonstructural protein 5A (NS5A) of JFH1mut4-6 (UniProt Q99IB8). The following applies: Huh7.5 cells transfected with full-length genome, harvested 72 h later; two independent experiments; read off a plot.
For a further assay, the target named is p7 of JFH1 (UniProt Q99IB8). The following applies: Huh7.5 cells transfected with full-length genome, harvested 72 h later; two independent experiments; read off a plot.
Assay [3] addresses envelope glycoprotein E2 of JFH1 (UniProt Q99IB8). The following applies: harvested 72 h later, two independent experiments, read off a plot.
The next assay concerns the target NS3 Q221L of JFH1. The conditions noted are these: W35F-NS3 genome; Huh7.5 cells, harvested 72 h later; two independent experiments; read off a plot.
The next assay concerns the target E2 V341A of JFH1. The following applies: F77A-E2 genome; Huh7.5 cells, harvested 72 h later; two independent experiments; read off a plot.

For the substance “HA- and Flag-tagged NS2 of JFH1mut4-6 (HAF-NS2) (from UniProt Q99IB8) CT1.h”, the percent of parent stood at 26% in assay [1]; 56% in assay [2]; 23% in the assay with p7 of JFH1; 30% in assay [3] (Huh7.5 cells transfected with full-length genome); 84% in assay [3] (genome also carries the pseudoreversion p7-E3D (CT1.h-p7), Huh7.5 cells).

As to m1; m4 NS2:W35F; NS3:Q221L, the percent of parent with NS3 Q221L of JFH1 is 52%.

As for m1; m2 NS2:F77A; E2:V341A, the percent of parent with E2 V341A of JFH1 was 89%.
